Measurements: article doi:10.1101/177840

Biological target: His-tagged full-length Ajuba (UniProt Q96IF1)
Test: pull-down

Sequence of RPA70-OB½ABC, aa 234-612 (P27694 234-612): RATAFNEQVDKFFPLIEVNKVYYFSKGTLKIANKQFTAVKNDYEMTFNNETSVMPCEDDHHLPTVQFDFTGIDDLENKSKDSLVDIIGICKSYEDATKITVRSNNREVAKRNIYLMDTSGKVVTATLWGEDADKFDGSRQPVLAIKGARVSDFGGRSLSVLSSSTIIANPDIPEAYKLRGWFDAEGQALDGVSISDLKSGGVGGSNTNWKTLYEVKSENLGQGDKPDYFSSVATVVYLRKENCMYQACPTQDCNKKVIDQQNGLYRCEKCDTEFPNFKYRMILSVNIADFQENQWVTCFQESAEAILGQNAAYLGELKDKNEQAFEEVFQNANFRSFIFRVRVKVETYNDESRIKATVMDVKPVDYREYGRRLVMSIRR

pull down relative to full-length RPA70 (100%): 58.7%
Substance: RPA70-OB½ABC, aa 234-612 (from UniProt P27694 234-612) (domain or fragment)
